{"source": "patent US20250000944A1", "about": "“USE OF RECOMBINANT CALRETICULIN IN HAIR GROWTH, HAIR BREEDING, HAIR PROTECTION OR ANTI-HAIR LOSS AND RELATED PRODUCT” (BEIJING YITUBAIHUI BIOTECH CO., LTD, priority 2021, published 2025)", "molecules": {"B1": {"name": "CRT-3: fragment (1-291 aa) of recombinantly expressed CRT, amino acid sequence SEQ ID NO: 12 (protein)", "chain": "EPAVYFKEQFLDGDGWTSRWIESKHKSDFGKFVLSSGKFYGDEEKDKGLQTSQDARFYALSASFEPFSNKGQTLVVQFTVKHEQNIDCGGGYVKLFPNSLDQTDMHGDSEYNIMFGPDICGPGTKKVHVIFNYKGKNVLINKDIRCKDDEFTHLYTLIVRPDNTYEVKIDNSQVESGSLEDDWDFLPPKKIKDPDASKPEDWDERAKIDDPTDSKPEDWDKPEHIPDPDAKKPEDWDEEMDGEWEPPVIQNPEYKGEWKPRQIDNPDYKGTWIHPEIDNPEYSPDPSIYAY"}, "B2": {"name": "CRT-1: recombinantly expressed full-length CRT (1-400 aa), amino acid sequence SEQ ID NO: 1, expressed in Pichia pastoris (protein)", "chain": "EPAVYFKEQFLDGDGWTSRWIESKHKSDFGKFVLSSGKFYGDEEKDKGLQTSQDARFYALSASFEPFSNKGQTLVVQFTVKHEQNIDCGGGYVKLFPNSLDQTDMHGDSEYNIMFGPDICGPGTKKVHVIFNYKGKNVLINKDIRCKDDEFTHLYTLIVRPDNTYEVKIDNSQVESGSLEDDWDFLPPKKIKDPDASKPEDWDERAKIDDPTDSKPEDWDKPEHIPDPDAKKPEDWDEEMDGEWEPPVIQNPEYKGEWKPRQIDNPDYKGTWIHPEIDNPEYSPDPSIYAYDNFGVLGLDLWQVKSGTIFDNFLITNDEAYAEEFGNETWGVTKAAEKQMKDKQDEEQRLKEEEEDKKRKEEEEAEDKEDDEDKDEDEEDEEDKEEDEEEDVPGQAKDEL"}}, "key": {"[1]": {"tested_on": "androgenic alopecia model", "experiment": "First experiment: testosterone-induced androgenic alopecia model, hair observed by dermatoscope and scanning electron microscopy", "format": "in vivo, C57BL/6 male mice", "conditions": "21 days, proteins 0.21 mg/ml injected on the back once a day, minoxidil 5% external, finasteride 13 μg/mL; for changes in hair observed by dermatoscope: compared with the model group (frizzy hair)", "experimental": "Experimental animals: C57BL/6 male mice, 6-7 weeks old, weighing (20±2) g, were provided by Beijing Vital River Laboratory Animal Technology Co. Ltd., with the animal license number of SCXK (Beijing) 2021-0006. They were kept in a 12 h light/12 h dark environment, with free access to food and water. The mice were divided into normal NC group (NC), model group (Model), positive control-minoxidil group (Minoxidil), positive control-finasteride group (Finasteride), experimental group A and experimental group B. The proteins were stored in a −70° C. refrigerator and diluted with physiological saline when used. Experimental group A used rh-CRT-1, with a concentration of 0.21 mg/ml. Experimental group B used rh-CRT-2, with a concentration of 0.21 mg/ml. There were 6 mice in each group.\nThe main reagents used are as follows: 4% paraformaldehyde (Beijing Solarbio Technology Co., Ltd., China), isoflurane (Rayward, China), testosterone (Shanghai Standard Biotechnology Co., Ltd., China), paraffin sectioner (Thermo, USA), small animal anesthesia machine (Rayward, China), and inverted microscope (Olympus, Japan).\nModeling and drug administration: First, the androgenic alopecia model was established. One day before the modeling, the hair in the central part of the back of the experimental animal was removed with a skin preparation knife, and the prepared area was depilated with a depilatory cream. After 24 hours of depilation, the modeling agent (testosterone, 5.0 mg/mL) was subcutaneously injected into the neck of the mice in groups except the NC group, with a total dose of 0.2 mL/mouse. The mice in the NC group were injected with an equal amount of normal saline. After modeling, the mice were administrated with drugs. The NC group was injected with normal saline once a day, 0.15 mL/mouse each time. The experimental group A, experimental group B and positive control group were injected with modeling agent (testosterone), and administrated with drugs after 2 hours, and the dose of modeling agent was 0.2 mL/mouse. The experimental group A and experimental group B were injected on the back once a day, 0.15 mL/mouse each time. The positive control minoxidil group was applied 5% minoxidil externally, 0.01 mL/mouse, once a day. The positive control finasteride group was applied finasteride at a concentration of 13 μg/mL, 0.2 mL/mouse, once a day."}, "[2]": {"tested_on": "AGA (androgen alopecia) model mice", "experiment": "Fourth experiment: hair growth score in DHT-induced AGA model mice", "format": "in vivo, C57BL/6N male mice", "conditions": "Day 17; for hair growth score compared with the Model group: external application 100 μL, CRT 0.35 mg/ml, MNX 5 mg/ml", "experimental": "The experimental animals were the same as in the third experiment.\nThe AGA model was established in the same manner as the third experiment, and the administration was carried out as follows: The AGA model was established by injecting dihydrotestosterone into the experimental mice. Dihydrotestosterone (DHT) solution was injected subcutaneously at multiple points every day, 100 μL/mouse (5 mg/kg body weight), and then the drug was administered after 3 h of absorption. CRT-3 and CRT-1 protein solutions were applied externally. 100 μL of protein solution was applied, and 100 μl of minoxidil MNX was applied. The solvent formula comprised 50% ethanol, 20% propylene glycol, and 30% pure water.\nThe scoring criteria and scoring process were the same as those in the third experiment."}, "[3]": {"tested_on": "mice with androgenic alopecia", "experiment": "Second experiment: testosterone hair loss model, hair growth, skin blackness, scanning electron microscopy and hair follicle count", "format": "in vivo, C57BL/6 male mice", "conditions": "for hair growth on the back skin: 17th day, 0.15 mL/mouse once a day; for blackness of the back skin (color tester): Day 17; for blackness of the back skin (color tester) / number of hair follicles (pathological section): P<0.01", "experimental": "Experimental animals: C57BL/6 male mice, 6-7 weeks old, weighing (20±2) g, were provided by Beijing Vital River Laboratory Animal Technology Co. Ltd., with the animal license number of SCXK (Beijing) 2021-0006. They were kept in a 12 h light/12 h dark environment, with free access to food and water. The mice were divided into normal control group (normal group, NC), model group (Model), experimental group C (rh-CRT-2, with a concentration of 0.35 mg/ml) including an injection group and an external application group, experimental group D (rh-CRT-3, with a concentration of 0.21 mg/ml) including an injection group and external application group, and positive control-minoxidil group (Minoxidil). The proteins were stored in a −70° C. refrigerator and diluted with physiological saline when used. There were 6 mice in each group.\nModeling and drug administration: First, the hair loss model was established. One day before the modeling, the hair in the center of the back of the experimental animal was removed with a skin preparation knife, and the prepared skin area was depilated with a depilatory cream. After 24 hours of depilation, the normal control group was given 75% ethanol, and other groups were injected with testosterone solution (5 mg/mL) prepared with 75% ethanol, 0.01 mL/mouse. Two hours later, the injection groups of experimental group C and experimental group D were injected on the back, 0.15 mL/mouse, once a day, for 17 consecutive days; the external application groups of experimental group C and experimental group D were applied on the back, 0.15 mL/mouse, once a day, for 17 consecutive days. The normal control group and the model group were externally applied with physiological saline, once a day, 0.15 mL/mouse, for 17 consecutive days. During the drug administration process, except for the normal control group, all other groups were injected with the modeling agent (testosterone), and administrated with drugs after 2 hours. […] After the experiment, the mouse skin was pathologically sectioned as follows: The skin pathological tissue was fixed in 4% paraformaldehyde, trimmed, dehydrated and transparent, and then embedded. The slices were cut with a thickness of 6 μm using a paraffin slicer, and further dewaxed, stained, dehydrated, transparent and sealed. The hair follicles in different areas were observed under an optical microscope, and the number of hair follicles was statistically analyzed.\nScanning electron microscopy observation: At the end of the experiment, hair shafts were randomly plucked from the newly formed hair area on the back of each group of mice. Three mice were selected from each group. The plucked hair shafts were fixed and the changes of hair shafts and hair cuticles were observed by scanning electron microscopy.\nStatistical analysis: All data were processed using SPSS 17.0 software. One-way ANOVA was used for comparisons among multiple groups. Data were expressed as mean±standard deviation (x±s). P<0.05 was considered statistically significant, and P>0.05 was not considered statistically significant."}, "[4]": {"tested_on": "AGA (androgenic alopecia) model mice", "experiment": "Third experiment: hair growth score in DHT-induced AGA model mice", "format": "in vivo, C57BL/6N male mice", "conditions": "Day 17", "experimental": "C57BL/6N male mice, 6-7 weeks old, weighing (18-20) g, 50 mice, with the animal license number of SCXK (Beijing) 2021-0006, were kept in a 12 h light/12 h dark environment, with free access to food and water. Adaptive feeding was performed for about 1 week.\nThe hair in an area of about 2 cm×3 cm at the border of the spine was shaved using an electric shaver. The depilatory area was applied with 8% sodium sulfide solution. After 90±10 s, the depilatory area on the back was cleaned with cotton balls dipped in water, the residual sodium sulfide was washed away with a washing bottle, and then the mice were wiped dry. Because the hair follicle cycle of mice was in the resting phase at this time, the mouse skin was pink. Mice were randomly divided into groups using Excel software, 10 mice in each group, and the modeling was established after 24 h and the drug was administered for 17 consecutive days. The AGA model was established by injecting dihydrotestosterone into the experimental mice. Dihydrotestosterone (DHT) solution was injected subcutaneously at multiple points every day, 100 μL/mouse (5 mg/kg body weight), and then the drug was administered after 3 h of absorption. CRT-2 and CRT-1 protein solutions were applied externally. 100 μL of protein solution was applied, and 100 μl of minoxidil MNX was applied. The CRT and MNX combination group was first applied with CRT-2 protein solution and then MNX 2 hours later. The solvent formula comprised 50% ethanol, 20% propylene glycol, and 30% pure water.\nScoring was based on the coverage of hair growth: • 0 points: no hair growth, pink in the hair removal area; • 1 point: gray in the hair removal area, hair coverage area E<20%; • 2 points: black in the hair removal area, hair coverage area 20%<E<40%; • 3 points: black in the hair removal area with a little hair growth, hair coverage area 40%<E<60%; • 4 points: black in the hair removal area with some hair growth, hair coverage area 60%<E<80%; • 5 points: black in the hair removal area, hair coverage area 80%<E<100%.\nThe skin color changes of mice were observed before administration every day. The hair removal time of mice was designated as Day 0, the first day of administration was designated as Day 1, and so on. The hair growth of each mouse was recorded and analyzed on Day 7, Day 9, Day 11, Day 13, Day 15, and Day 17."}, "[5]": {"conditions": "external application group, compared with the model group"}, "[6]": {"conditions": "injection group, compared with the model group"}}, "note": "Entries after “also recorded” stand apart in the source; their conditions may differ.", "data": [{"molecule": "CC(C)(C)NC(=O)[C@H]1CC[C@H]2[C@@H]3CC[C@H]4NC(=O)C=C[C@]4(C)[C@H]3CC[C@]12C", "note": "[finasteride, reference compound]", "values": [{"measurement": "changes in hair observed by dermatoscope", "setting": "[1]", "result": "smooth hair"}, {"measurement": "hair cuticles observed by scanning electron microscopy", "setting": "[1]", "result": "arranged neatly"}]}, {"molecule": "B1", "values": [{"measurement": "hair growth score compared with the Model group", "setting": "[2]; P<0.05", "result": "significantly higher; also recorded: significantly increased"}, {"measurement": "hair growth score compared with the CRT-1 group", "setting": "[2]; external application, P<0.05", "result": "better than; also recorded: significantly increased"}, {"measurement": "hair growth on the back skin", "setting": "[3]; external application group", "result": "promoted hair growth"}, {"measurement": "hair growth on the back skin", "setting": "[3]; injection group", "result": "promoted hair growth"}, {"measurement": "blackness of the back skin (color tester)", "setting": "[3]; [5]", "result": "significantly increased"}, {"measurement": "blackness of the back skin (color tester)", "setting": "[3]; [6]", "result": "significantly increased"}, {"measurement": "hair cuticles under scanning electron microscopy", "setting": "[3]; [5]", "result": "dense"}, {"measurement": "hair shafts under scanning electron microscopy", "setting": "[3]; [5]", "result": "became thicker"}, {"measurement": "number of hair follicles (pathological section)", "setting": "[3]; [5]", "result": "significantly promoted"}, {"measurement": "hair cuticles under scanning electron microscopy", "setting": "[3]; injection group", "result": "dense"}, {"measurement": "hair shafts under scanning electron microscopy", "setting": "[3]; injection group", "result": "thin"}, {"measurement": "number of hair follicles (pathological section)", "setting": "[3]; [6]", "result": "significantly promoted"}]}, {"molecule": "B2", "values": [{"measurement": "hair growth score compared with the Model group", "setting": "[4]; external application 100 μL, CRT 0.35 mg/ml, MNX 5 mg/ml, P<0.05", "result": "significantly higher"}, {"measurement": "hair growth score compared with MNX", "setting": "[4]; external application, P>0.05", "result": "no significant difference"}, {"measurement": "changes in hair observed by dermatoscope", "setting": "[1]", "result": "smoother"}, {"measurement": "hair cuticles observed by scanning electron microscopy", "setting": "[1]", "result": "arranged neatly"}, {"measurement": "hair growth score compared with the Model group", "setting": "[2]; P<0.05", "result": "significantly higher"}, {"measurement": "hair growth score compared with MNX", "setting": "[2]; external application, P>0.05", "result": "no significant difference"}]}]}
